Ends that are not written are not given here. * marks the point of attachment. Biotin = O=C1N[C@H]2[C@H](CS[C@H]2CCCCC(=O)*)N1

Test [1] deals with T1, IL-8 (CXCL8) (UniProt P10145 28-99, limits assumed).
T1 construct: also called IL-8(72aa); IL-8(77aa)
T1 sequence (looked up): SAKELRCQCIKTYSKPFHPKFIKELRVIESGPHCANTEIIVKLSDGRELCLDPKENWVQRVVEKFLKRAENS
Nature of the test: SPR, ProteOn XPR36, GLM chip. The method, then:
(§1) Surface Plasmon Resonance (SPR): SPR was performed to make a quantitative determination of CK-peptide affinity. SPR measures the apparent equilibrium dissociation constant (KD) of the CK-binding peptide in the CK-peptide complex. KD is the ratio of the rate constants, Kd (1/s) and Kₐ (1/Ms), Kd/Kₐ. SPR was done with the ProteOn XPR36-Protein Interaction Array System (BioRad, Israel) with the Sensor Chip, GLM (sensor range 12-15 K response units).
(§2) Summary of Results: Affinity of Chemokine—Peptide Inteaction. […] The affinity with which peptides interact with CKs is relevant for low affinity reagents that are intended to engage multiple disease-related target proteins. SPR analysis was employed to determine the apparent equilibrium dissociation constants (KD) of CK-peptide complexes. […] Peptide binding in the micro-milli molar range is low affinity interaction. SPR analysis also corroborated differential binding measurements made by the micro-array analysis (FIG. 25b).
Background: SPR reads the build-up and loss of mass on a sensor chip optically.

The target of test [2] is T2, Mig (CXCL9) (UniProt Q07325 23-125).
T2 construct: Bought chemokine
T2 sequence (looked up): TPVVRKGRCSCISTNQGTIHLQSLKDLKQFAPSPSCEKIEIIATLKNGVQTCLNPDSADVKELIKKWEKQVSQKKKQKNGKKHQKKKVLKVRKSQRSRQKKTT
Kind of test: SPR, ProteOn XPR36, GLM chip. The method, then: as §1, §2

In test [3] the target is T3, Eotaxin 3 (CCL26) (UniProt Q9Y258 24-94).
T3 construct: Bought chemokine
T3 sequence (looked up): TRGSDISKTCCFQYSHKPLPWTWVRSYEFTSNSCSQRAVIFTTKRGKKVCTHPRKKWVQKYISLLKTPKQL
Kind of test: micro-array, biotinylated peptide on printed CK.

The target in test [4] is T4, SDF-1α (CXCL12) (UniProt P48061-2 22-89).
T4 construct: Alpha isoform of CXCL12; also called SDFα
T4 sequence (P48061 22-89 limits assumed): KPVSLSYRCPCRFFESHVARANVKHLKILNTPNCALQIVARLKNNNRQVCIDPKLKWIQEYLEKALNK
Kind of test: micro-array, biotinylated peptide on printed CK.

Test [5] has as its target T5, RANTES (CCL5) (UniProt P13501 24-91).
T5 construct: Bought chemokine
T5 sequence (looked up): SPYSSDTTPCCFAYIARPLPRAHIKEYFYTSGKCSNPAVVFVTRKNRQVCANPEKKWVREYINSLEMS
Kind of test: micro-array, biotinylated peptide on printed CK.

Test [6] has as its target T6, I-309 (CCL1) (UniProt P22362 23-96, limits assumed).
T6 construct: Bought chemokine
T6 sequence (looked up): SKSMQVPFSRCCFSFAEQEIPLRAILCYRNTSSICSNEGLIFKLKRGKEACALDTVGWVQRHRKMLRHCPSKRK
Nature of the test: micro-array, biotinylated peptide on printed CK.

The target in test [7] is T7, MCP-1 (CCL2) (UniProt P13500 24-99).
T7 construct: Bought chemokine
T7 sequence (P13500 24-99 limits assumed): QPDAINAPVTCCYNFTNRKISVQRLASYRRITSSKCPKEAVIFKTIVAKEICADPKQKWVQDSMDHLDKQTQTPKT
Kind of test: micro-array, biotinylated peptide on printed CK.

For test [8], the target named is T8, MCP-4 (CCL13) (UniProt Q99616 24-98).
T8 construct: Bought chemokine
T8 sequence (Q99616 24-98 limits assumed): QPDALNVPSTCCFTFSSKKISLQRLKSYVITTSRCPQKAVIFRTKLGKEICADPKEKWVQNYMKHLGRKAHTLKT
Nature of the test: micro-array, biotinylated peptide on printed CK.

The target of test [9] is T9, TECK (CCL25) (UniProt O15444 24-150).
T9 construct: Bought chemokine
T9 sequence (looked up): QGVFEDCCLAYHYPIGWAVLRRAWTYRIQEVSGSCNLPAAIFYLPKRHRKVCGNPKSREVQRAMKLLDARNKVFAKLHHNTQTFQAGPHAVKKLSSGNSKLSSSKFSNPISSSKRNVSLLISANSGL
Nature of the test: micro-array, biotinylated peptide on printed CK.

For test [10], the target named is T10, SDF-1β (CXCL12) (UniProt P48061 22-93).
T10 construct: Beta isoform of CXCL12; also called SDFβ
T10 sequence (P48061 22-93 limits assumed): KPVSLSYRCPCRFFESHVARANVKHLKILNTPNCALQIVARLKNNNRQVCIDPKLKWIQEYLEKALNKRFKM
Kind of test: micro-array, biotinylated peptide on printed CK.

Test [11] addresses T11, Exodus-2 (CCL21) (UniProt O00585 24-134).
T11 construct: Bought chemokine
T11 sequence (looked up): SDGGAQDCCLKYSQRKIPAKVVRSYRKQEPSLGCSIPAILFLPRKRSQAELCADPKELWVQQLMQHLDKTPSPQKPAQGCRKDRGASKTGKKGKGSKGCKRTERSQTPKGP
Nature of the test: micro-array, biotinylated peptide on printed CK.

The target of test [12] is T2, Mig (CXCL9). Kind of test: micro-array, biotinylated peptide on printed CK.
Test [13] concerns the target T12, Eotaxin (CCL11) (UniProt P51671 24-97).
T12 construct: Bought chemokine
Kind of test: micro-array, biotinylated peptide on printed CK.

The target of test [14] is T13, MIP-3α (CCL20) (UniProt P78556 27-96).
T13 construct: Bought chemokine
T13 sequence (P78556 27-96 limits assumed): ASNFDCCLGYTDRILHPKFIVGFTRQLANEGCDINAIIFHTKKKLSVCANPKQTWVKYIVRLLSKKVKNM
Nature of the test: micro-array, biotinylated peptide on printed CK.

Test [15] deals with T3, Eotaxin 3 (CCL26). Nature of the test: micro-array, phage-presented peptide on printed CK. In outline: (§3)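 Chemokine was printed at 25 and 50 μg/ml onto protein microarray slides, with BSA and M13 phage controls, then blocked 1 h at room temperature.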
In test [16] the target is T4, SDF-1α (CXCL12). Kind of test: micro-array, phage-presented peptide on printed CK. In short, it runs like this:
as §3

Test [17] concerns the target T14, BCA-1 (CXCL13) (UniProt O43927 23-109).
T14 construct: Bought chemokine
T14 sequence (looked up): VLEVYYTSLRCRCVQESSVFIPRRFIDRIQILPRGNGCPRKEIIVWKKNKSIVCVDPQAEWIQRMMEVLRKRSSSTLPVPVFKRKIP
Kind of test: micro-array, phage-presented peptide on printed CK. In short, it runs like this:
as §3

The target of test [18] is T15, CTAC (CCL27) (UniProt Q9Y4X3 25-112).
T15 construct: Bought chemokine
T15 sequence (looked up): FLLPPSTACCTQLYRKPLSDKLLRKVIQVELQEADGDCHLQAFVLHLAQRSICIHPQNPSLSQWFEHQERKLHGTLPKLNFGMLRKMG
Kind of test: micro-array, phage-presented peptide on printed CK. In short, it runs like this:
as §3

For test [19], the target named is T6, I-309 (CCL1). Kind of test: micro-array, phage-presented peptide on printed CK. In outline:
as §3

The target of test [20] is T7, MCP-1 (CCL2). Nature of the test: micro-array, phage-presented peptide on printed CK. In short, it runs like this: as §3
For test [21], the target named is T8, MCP-4 (CCL13). Kind of test: micro-array, phage-presented peptide on printed CK. In short, it runs like this: as §3
In test [22] the target is T9, TECK (CCL25). Kind of test: micro-array, phage-presented peptide on printed CK. In outline: as §3
In test [23] the target is T10, SDF-1β (CXCL12). Kind of test: micro-array, phage-presented peptide on printed CK. In short, it runs like this:
as §3

The target in test [24] is T11, Exodus-2 (CCL21). Nature of the test: micro-array, phage-presented peptide on printed CK. In outline: as §3
Test [25] concerns the target T16, IP-10 (CXCL10) (UniProt P02778 22-98).
T16 construct: Bought chemokine
T16 sequence (looked up): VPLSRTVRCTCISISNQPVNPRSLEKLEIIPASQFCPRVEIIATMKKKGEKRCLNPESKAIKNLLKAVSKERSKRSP
Nature of the test: micro-array, phage-presented peptide on printed CK. In outline: as §3

For test [26], the target named is T2, Mig (CXCL9). Kind of test: micro-array, phage-presented peptide on printed CK. In outline:
as §3

The target of test [27] is T12, Eotaxin (CCL11). Kind of test: micro-array, phage-presented peptide on printed CK. In short, it runs like this:
as §3

Test [28] addresses T17, MCP-2 (CCL8) (UniProt P80075 24-99).
T17 construct: Bought chemokine
T17 sequence (looked up): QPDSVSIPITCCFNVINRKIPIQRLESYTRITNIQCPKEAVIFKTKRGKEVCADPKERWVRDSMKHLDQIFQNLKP
Nature of the test: micro-array, phage-presented peptide on printed CK. In outline: as §3

The target of test [29] is T18, Lymphotactin (XCL-1) (UniProt P47992 23-114, limits assumed).
T18 construct: Bought chemokine
T18 sequence (looked up): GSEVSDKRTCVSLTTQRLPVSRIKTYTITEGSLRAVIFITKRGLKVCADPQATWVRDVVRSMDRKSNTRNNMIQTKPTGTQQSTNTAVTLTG
Kind of test: micro-array, phage-presented peptide on printed CK. In short, it runs like this: as §3

In test [30] the target is T19, I-TAC (CXCL11) (UniProt O14625 22-94).
T19 construct: Bought chemokine; also called I-TACK
T19 sequence (looked up): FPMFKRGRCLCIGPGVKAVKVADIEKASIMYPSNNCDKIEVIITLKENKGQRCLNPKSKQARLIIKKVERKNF
Kind of test: micro-array, phage-presented peptide on printed CK. In short, it runs like this:
as §3

Test [31] has as its target T20, MDC(69aa) (CCL22) (UniProt O00626 25-93).
T20 construct: Bought chemokine
T20 sequence (looked up): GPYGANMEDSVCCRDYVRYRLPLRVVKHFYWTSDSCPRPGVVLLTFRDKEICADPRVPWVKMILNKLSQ
Nature of the test: micro-array, phage-presented peptide on printed CK. In short, it runs like this: as §3

Test [32] addresses T13, MIP-3α (CCL20). Kind of test: micro-array, phage-presented peptide on printed CK. In short, it runs like this:
as §3

For test [33], the target named is T21, Eotaxin 2 (CCL24) (UniProt O00175 27-104, limits assumed).
T21 construct: Bought chemokine
T21 sequence (looked up): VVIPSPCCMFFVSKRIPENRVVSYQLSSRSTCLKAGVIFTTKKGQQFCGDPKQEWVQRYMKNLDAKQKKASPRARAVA
Kind of test: micro-array, phage-presented peptide on printed CK. In outline:
as §3

T12 sequence (P51671 24-97 limits assumed): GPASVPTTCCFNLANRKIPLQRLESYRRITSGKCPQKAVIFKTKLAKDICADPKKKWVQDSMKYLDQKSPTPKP

B1: CBP6 (VTTFFDYDYGAPC, from the N-terminal of CCR2) (peptide)
peptide: VTTFFDYDYGAPC
notes: Peptide used in SPR; also called CB6R2
Regarding B1, the Kd – broadly, the free concentration of one partner at which half of the binding sites on the other are occupied at equilibrium, for simple one-to-one binding – in [1] amounted to 1060 µM; in test [2], 28.2 µM.

B2: Chemokine Binding Peptide 5 (CBP5) (peptide)
peptide: Biotin-LFGNDCE
notes: Synthetic biotinylated peptide, not phage-presented
For B2, the “Relative Fluorescence Units (RFU)” value in [3], in test [5], in [8] and in [13] was more than 2500 RFU throughout. Also, the binding result in [4], in [6], in test [7], in test [9], in [10] and in [11] was “binds” throughout. Moreover, the binding result in test [12] and in [14] was “binds” throughout.

B3: Phage-Presented Peptide 8.8 (Ph-p8.8) (peptide)
peptide: WVFGAAMCK
In the case of B3, the binding result in [15], in test [16], in test [17], in test [18], in [19] and in [22] was “binds” in each case. Moreover, the binding result in test [23], in [24], in test [25], in [26], in test [27] and in [29] was “binds” in each case. For the same molecule, the binding result in test [30], in test [31], in test [32] and in test [33] was “binds” throughout. In addition, the “Relative Fluorescence Units (RFU)” value in test [20], in test [21] and in test [28] was more than 15000 RFU each time.

Source of the values: patent publication US20100227824A1 (SYMTHERA CANADA, published 2010).
